test: yeast display, Sf9 membrane polyspecificity reagent, FACS + sequencing; frameworks hold sequencing errors
In short: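 Nanobodies from a synthetic yeast display library (Saccharomyces cerevisiae BJ5465), induced 36–48 hours with galactose, were stained 1 hour at 4 °C with 10% biotinylated, detergent-solubilized Sf9 membrane reagent, enriched on streptavidin microbeads, then FACS-sorted. Anti-HA (expression) and streptavidin (reagent binding) fluorescence set low and high (top ~1%) gates. Polyreactivity labels come from the gate of origin. Genes were colony-PCR amplified, MiSeq 2 × 250 sequenced and filtered by CDR length.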

Sequence | polyreactivity (PSR sort gate)
QVQLVESGGGLVQAGGSLRLSCAASGSIFSRYTMGWYRQAPGKERELVARINSSGTSTYYADSVKGRFTISRDNAKITVYLQMNSLKPEDTAVYYCARTSRHVRYDYWGQGTQVTVSS | low polyreactivity
QVQLVESGGGLVQAGGSLRLSCAASGRTLTGNAMGWYRPAPGKERELVAVISYSGTNTRYADSVKGRFTISRDNAKNTVYLQMNSLKPEDTAVYYCAADWLGISVVRDPFDHWGQGTQVTVSS | high polyreactivity
QEQLQERGGGLVQAGGSQRLGCAASGNISDAGYMGLYRQAPGKERELVAAIAAGSNTNYADSVKGRFTISRDNAKNTVYLQMNSLKPEDTAVFYCAVASYALVQYEYWGQGTQVTVNS | low polyreactivity
QVQLVESGGGLVQAGGSLRLSCAASGRIFNGNAMGWYRQAPGKESELVAAISTSGGRTYYADSVKGRFTISRDNAKNTVYLQMNSLKPEDTAVYYCAARYFRRDYIDYDLWGQGTQVTVSS | low polyreactivity
QVQLVESGGGLVQAGGSLRLSCAASGTFAVYTMGWYRQAPGKERELVAAITKSGGSTYYADSVKGRFTISRDNAKNTVYLQMNRLKPEDTAVYYCATRDSPRTKNGYYYWGQGTQVTVSS | high polyreactivity
QVQLVESRGCLVQAGGSLRLSCAASGRTFYRYVMGWYRQAPGKEMELVAAISEGGGSTFYADSVKGRFTISRDNAKNTDYLQMNSLKPEDTAVYYCAADYYVRGGFFRYDYWGQGTQVTVSS | low polyreactivity
QVQLVESGGGLVQAGGSLRLSCAASGSTLPGNVMGWYRQAPGKERELVAAISKRGASTYYADSVKGRFTISRDNAKNNVYLQTPRLKPEDSAVYYCASRTRGSVVRFDYWGQGTQVTVSS | high polyreactivity
QVQLVESGGGLVQAGGSLRLSCAASGSTFWYYAMGWYRQAPGKERQLVAAISRNGVSTYYADSVKGRFTISRDIAKNTVYLQMNSMKPEDTAVYYCNVVTKFTGRGYDYWGQGTQVTVSS | high polyreactivity
QDQLEESGGGLVQAGGSLRLSCAASGRTFFHYAMGWYRQAPGKERELVAGISSGGRTTYADSVKGRFTISRDNAKNTVYLQMISLKPEDTAVYYCAASYIVWLTRGAPRKRFDYWGQGTQVTVSS | high polyreactivity
QVQLVESGGGLVQAGGSLRLSCAASGSTISVNAMGWYRQAPGKERELVAAISDRGGSTYYADSVKGRFTISRDNAKNTVYLQMNSLKPEDTAVYYCAALFLRVTYFRLGLYSYEYWGQGTQVTVSS | low polyreactivity
QVQLVESGGGLVQAGGSLRLSCAASGSTFDPNTMGWYRQAPGKDRELVAAITSSTASTYYADSVKGRFTISRDNAKNTVYLQMNSLKPEDTAVYYCAADSEQDNLRYYRWVWYYYWGQGTQVTVSS | low polyreactivity
QDQLVESAGGLVQAGGSLRLSCAASASIFVSYAMGWYRQAPGKERELVAAITRSGGSTYYSDSVKGRFTISRDNAKYTVYLQMNSLKPDDTAVYYCAARSYLGAYRRFYWGQGTQVTVSS | high polyreactivity
QVQLVESGGGLVQAGGSLRLSCAAYGSIFRLYAIGWSRQAPGKDRELVAAISSVGRTYYAYSVKGRFTISRDNAKNTVYLQMNSLKPEDSAVYYCAARPYKFARYDYWGQGTQVTVSS | high polyreactivity
QVQLVESGGGLVQAGGSLRLSCAASGRIFGYYAMGWYRQAPGKERELVAAISNGGSTHYADSVKGRFTISRDNANNTVYLQMTSLKPEDTAVYYCAAKASRVDWGYGYWGQGTQVTVSS | high polyreactivity
QVQLVESGGGLVQAGGSLRLSCAASGSIFKWNDMGWYRQSPGKERELVAAITWSGGRTYYADSVKGRFTISRDNAKNTVYLQMNSLKPEDTAVYYCAATQYRSDGWRYDYWGQGTQVTVSS | high polyreactivity
QVQLVESGGGLVQAGGSLRLSCAASGSTFVRNAMGWYRQAPGKEREFVASISSTSGRTYYADSVKGRFTISRDNAKNTVYLQMNRLKPEDTAVYYCAADVPPKYRHRYTLYDYWGQGTQVTVSS | low polyreactivity
QVQLVESGGGLVQAGGSLRLSCAASGSIFRLNTMGWYRQAPGKEMEFVAAISKGGTSTYYADSVKARFTISRDNAKNTVYLQMNSLKPEDTAVYYCAADYYSLYEATTDFDYWGQGTQVTVSS | high polyreactivity
QVQLVESGGGLVQAGGSLRLSCAASGNIFWGNAMGWYRQAPGKERELVATITTGGSTNYADSVKGRFTISRDNAKNTVYLQMNSLKPEDTAVYYCNKRTTTASHLTSDYWGQGTQVTVSS | low polyreactivity
QVQLVESGGGLVQAGGSLRLSCAASGGIFGYYVMGWYRQAAGNERELVAVITRGGSTNYADSVKGRFTISRDNAKNTVYLQMNSLKPEDTAVYYCAKDVPYRRVRSEYWGQGTQVTVSS | low polyreactivity
QDQLVESRGGLVQAGGSLRLSCAASGFTFYRYAMGWYRQAPGKERELVAAITWRGTSTYYADSVKGRFTISRDNAKNTVYLQMNSLKPEDTAVYYCNADRGYKYDYWGQGTQVTVSS | high polyreactivity
QVHLVESGGGLVQAGGSLRLSCAASGSIFYYYAMGWYRQAPGKEREFVAAINWSGGITYYADSVKGRFTISRDNAKNTVYLQMNSLKPEDTAVFYCAAPVRGYSYGKYDYWGQGTQVTVSS | high polyreactivity

Sequence | polyreactivity (PSR sort gate)
QVQLVESGGGLVQAGGSLRLSCAASVKIFAWYALGWYRKAPGKEMELVADISSRGGSTYYADSVKGRFTISRDNAKNTVYLQMNSLKPEDTAVYYCAAVWYWTQDYDYWGQGTQVTGSS | low polyreactivity
QVQLQESGGGLVQAGGSMRLSCAATGSISELRPMGWYSQAPGKERELVAGISTGGSTNYADSVKGRFTISRDNAKNTVFLQMNSLKPEDTAVYYCAAGSYGEGTYDYWGQGTQVTVRS | high polyreactivity
QVQLVESGGGLFKAGGSLRLSSAASGSIFQNYDMGWYRQAPGNERELVAAISSSGDTYYADSVKGRFTISLDNAKNTVYLQMNSLKPEDTAVYYCAATYPYSLYYPYYGGDYDYWGQGTQVTVSS | low polyreactivity
QVQLVESGVGLVQAGGSLRLSCAASGFTFNYNAMGWYRQAPGKERELVADISRSGGSTYYADSVKGRFTISRDNAKNTVYLQMNSLKPEDTPVYYCAAVRAIGKYGYWGHGTQVTVSS | high polyreactivity
QVQLVESGGGLVQAGGSLRLSCAASGIIFPSYAMGWYRQAPGKERELVAAISLSGGRTYYADSVKGRFTISRDNAKNTVYLQMYSLKPEDTAVYYCAAYPSTSYSKYGYYWGQGTLVTVSS | high polyreactivity
QVQLVESGGGLVQAGGSLRLSCAASGRTFFQYAMGWYRQAPGKERELVAAIRWSDSTYYADSVKGRFTISRDNAKNTVYLQMNSLKPEDTAVYYCAAPRVSQYSTKKYDYWGQGTQVTVSS | low polyreactivity
QVQLVESGGGLVQAGGSLRLSCAASGRTFRRYFMGWYRQAPGKERELVAAISGGGGSTYYAGSVKGRFTISRDNAKNTVYLQMNSLKPEDTAVYYCAARIGWYQYWGYPTSYGYWGQGTQVTVSS | high polyreactivity
QVQLEESGGGLVQAGGSLRLICAATGSIFSFYAMGWYRQAPGKEREWVAAIDVSGGSTYYADSVKGRFTISRDNAKNTVYLQMNSLKPEDTAVYYCAKDVRDQYDYWGQGTQVTVSS | low polyreactivity
QFQLVESGGGLVQAGGSLRLSCAASGITFGWYAMGWYRKATGKETELVASISSSGSTNYADSVKGRFTISRDNAKNTVYLQMNSLKPEDTAVYYCNKDYLLRQYYIYVIEGDYWGQGTLVTVSS | low polyreactivity
QVQLVESGGGLVQAGCSLRLSCAASGSIFYGYAMGWYRQAPGKERELVARITGSGGDTSYADSVKGRFTISRDNAKNTVYLQMNSLKPEDTAVYYCNTDLYITYTLYTGSEYDYWGQGTQVTVSS | low polyreactivity
QVQLVESGGGLVQAGGSLRLSCAASGSTFVGYAMGWYRQAPGKERELVAAISRSGGRTYYADSVKGRFTISRDNAKNTVYLQMNSLKPEDTAVYYCYPYYIASTFDYWGQGTQVTVSS | high polyreactivity
QVQLVESGGGLVQAGGSLRLSCAASGFIFLIYAIGWYRQAPGTERELVATIRYSGGRTYYADSVKGRFTISRDNAKNTVYLQMNSLKPEDTAVYYCAARSVWFSGQGRMNYWGQGTQVTGSS | high polyreactivity
QVQLVESGGGLVQAGGSLRLSCAASGRTICRNVMGWYRQAPGKERELVAAISRSGGSTYYADSVKGRFTISRDNAKNTVYLQMNSLKPEVTAVYYCAAYSVGDYYWGQGTQVTVSS | high polyreactivity
QVQLVESGGGLVQAGGSLRLSCAASGRIFYYYAMGRYRQAPGKERELVAAISWSGGSTYYADSVKGRFTISRDNAKNTVYLQMNSLKPEDTAVYYCAAESRKYREYYYWGQGTQVTVSS | high polyreactivity
QDQLVESGGGLVQAGGSLRLSCAASGSNLYRNAMGWSRQAPGKERELVAAITSRGGSTYADSVTGRFTISRDNAKNTVYLQMNSLKPEDTAVYYCAKGYLYRRPTVTHGYWGQGTQVTVSS | low polyreactivity
QVQLVESGGRLVQAGGSLRLSCAASGRTFRSHTKGWYRKAPGKERELVAAIIIGGSTYYADTVKGRFTISRDNAKNTVYLQMNSLKPEDSAVYYCARFYRYSRDYWGQGTQVTVSS | high polyreactivity
QVQLVESGGGIVQAGGSLRLSCAASGITFDGYAMGWYRQAPGKERELVAGISWSGARTYYADSVKGRFTISRDNAKNTVYLLMNSLKPEDTALYYCNKVSLRNHGGYDYWGQGNQVTVSS | high polyreactivity
QVQLVESGGGLVQAGGSLLLSCAASGSTFIWNAMGWYRQAHGKERELVAAISSGGSTYYADSVKGRFTISRDNAKNTVYLQMNSLKPEDTAVYYCAAEYVYNVWEQRYAVYSTDDYWGQGTQVTVSS | low polyreactivity
QVQLVESGGGLVQAGGSLRLSCAASGSIFYRYALGWYRQAPGKEREFVAGITTRGGSTYYADSVKGRFTISRDNAKNTVYFQMNCLKPEDTAVYDCAASSRVWPNFGYWGQGTQVTVSS | high polyreactivity
QVQLVESGGGLVQAGGSLRLSCAASGRIFVQYDMGWYRQAHGKERELVAAITGGGGSTYYADSVKGRFTISRDNAKNTVYLQMNSLKPEDTAVYYCAADQDVYDFTGYDYWGQGTQVTVSS | low polyreactivity
